{
  "source": "paper PMC10846113",
  "about": "“fosA11, a novel chromosomal-encoded fosfomycin resistance gene identified in Providencia rettgeri” (Microbiology Spectrum, 2023)",
  "key": {"[1]": {"system": "C[C@@H]1O[C@@H]1P(=O)(O)O", "assay": "glutathione consumption, monochlorobimane fluorescence, Michaelis-Menten fit", "assay_type": "biochemical, Escherichia coli", "conditions": "30 mM glutathione, 0.05 mM MnCl2, 0.1 M HEPES pH 8.0, 25 °C", "from_the_text": "glutathione consumption, monochlorobimane fluorescence, Michaelis-Menten fit on FosA3"}, "[2]": {"system": "C[C@@H]1O[C@@H]1P(=O)(O)O", "assay": "glutathione consumption, monochlorobimane fluorescence, Michaelis-Menten fit", "assay_type": "biochemical, Providencia rettgeri", "conditions": "30 mM glutathione, 0.05 mM MnCl2, 0.1 M HEPES pH 8.0, 25 °C", "from_the_text": "glutathione consumption, monochlorobimane fluorescence, Michaelis-Menten fit on FosA11"}},
  "data": [
    {"substance": "FosA3 (Escherichia coli)", "values": [
      {"measurement": "Km", "setting": "[1]", "value": "12 ± 2", "unit": "mM"},
      {"measurement": "kcat", "setting": "[1]", "value": "112 ± 5.3", "unit": "s⁻¹"},
      {"measurement": "kcat/Km", "setting": "[1]", "value": "9000 ± 1000", "unit": "M⁻¹ s⁻¹"}
    ]},
    {"substance": "FosA11 (Providencia rettgeri)", "values": [
      {"measurement": "Km", "setting": "[2]", "value": "18 ± 4", "unit": "mM"},
      {"measurement": "kcat", "setting": "[2]", "value": "56.1 ± 3.2", "unit": "s⁻¹"},
      {"measurement": "kcat/Km", "setting": "[2]", "value": "2900 ± 500", "unit": "M⁻¹ s⁻¹"}
    ]}
  ]
}
